The record followed here is patent US20210180049A1 (CHUGAI SEIYAKU KABUSHIKI KAISHA, priority 2013, published 2021).

Data set [1] can be described thus: SPR binding of SMB0002 to AMP. The settings on record: Biacore; read-out: KD of SMB0002 toward AMP. How it is done: Binding of SMB0002 was assessed at AMP concentrations of 500, 250 (duplicate), 125, 62.5, 31.25, 15.625, and 7.8125 μM.
(In general: In SPR one partner is held on a chip, and binding of the other changes the refractive index at the surface.)

A short description of data set [2]: SPR binding of SMB0002 to ADP. The conditions noted are these: Biacore, NaCl concentration 600 mM; read-out: KD of SMB0002 toward ADP. How it is done:
Binding to ADP was assessed by a method similar to the measurement method using Biacore described in Example 3-2, except that the NaCl concentration was changed to 600 mM. Binding of SMB0002 was assessed at ADP concentrations of 2000, 1000 (duplicate), 500, 250, 250, 125, 62.5, and 31.3 μM.

The nature of data set [3]: SPR (Biacore T200) binding of SMB0002 to adenosine. The settings on record: Biacore T200, 25° C., antibody captured on protein A; read-out: KD of SMB0002 toward adenosine. As for the experimental part: Using Biacore T200 (GE Healthcare), the antibody SMB0002 obtained by the B cell cloning method was analyzed for its interaction with adenosine in antigen-antibody reaction. Sensor chip CM5 (GE Healthcare) was immobilized with an appropriate amount of protein A (Invitrogen) by amine coupling. Antibodies of interest were captured by the chip to allow interaction to adenosine as an antigen. The running buffer used was 50 mmol/1 TrisHCl, 150 mmol/1 NaCl, 0.02% (w/v) Tween20, pH 7.6. All measurements were carried out at 25° C. The antigens were diluted using the running buffer.
Then, running buffer was run at a flow rate of 30 μL/min for four minutes and dissociation of the antigen from the antibody was observed. Next, 10 mmol/L glycine-HCl, pH 1.5, was loaded at a flow rate of 30 μL/min for 30 seconds to regenerate the sensor chip. Kinetic parameters such as the association rate constant ka (1/Ms) and the dissociation rate constant kd (l/s) were calculated based on the sensorgrams obtained by the measurements. The dissociation constant KD (M) was calculated from these constants. Each parameter was calculated using the Biacore T200 Evaluation Software (GE Healthcare).

A short description of data set [4]: SPR (Biacore T200) binding of SMB0002 to ATP. The conditions noted are these: Biacore T200, 25° C., antibody captured on protein A/G; read-out: KD of SMB0002 toward ATP. How it is done: Biacore T200 (GE Healthcare) was used to analyze interaction in the antigen-antibody reaction with ATP. The antibody of interest was captured onto protein A/G (Invitrogen) immobilized in an appropriate amount onto Sensor chip CM5 (GE Healthcare) by the amine coupling method, and ATP which is the antigen was allowed to interact. The running buffer used was 10 mmol/L ACES, 150 mmol/L NaCl, 0.05% (w/v) Tween 20, pH 7.4. All measurements were carried out at 25° C. The antigen was diluted with running buffer.
Then, running buffer was run at a flow rate of 20 μL/min for three minutes and dissociation of the antigen from the antibody was observed. Next, 10 mmol/L glycine-HCl, pH 1.5, was injected at a flow rate of 30 μL/min for 30 seconds to regenerate the sensor chip. Kinetic parameters such as the association rate constant ka (1/Ms) and the dissociation rate constant kd (l/s) were calculated based on the sensorgrams obtained by the measurements. The dissociation constant KD (M) was calculated from these constants. Each parameter was calculated using the Biacore T200 Evaluation Software (GE Healthcare).

Data set [5] is described as follows: competitive ELISA of 2′-Adenosine-PEG-Biotin-binding clones with adenosine and ATP. The settings on record: 50 nM 2′-Adenosine-PEG-Biotin with 500 μM adenosine or ATP; absorbance at 405 nm. How it is done:
To immobilize the antibodies, the plate was allowed to stand for one hour or more at room temperature. After the antibodies diluted with PBS were removed from each well, TBS containing 1% BSA was added thereto and the plate was allowed to stand for one hour or more. Then, the TBS (pH 7.4) containing 1% BSA was removed from the plate. 2′-Adenosine-PEG-Biotin diluted to 50 nM with PBS, a mixture of 2′-Adenosine-PEG-Biotin and adenosine diluted to 50 nM and 500 μM respectively with PBS, a mixture of 2′-Adenosine-PEG-Biotin and ATP diluted to 50 nM and 500 μM respectively with PBS, or PBS alone was added to the plate. The plate was allowed to stand at room temperature for one hour, and then washed three times with 80 μl of PBS containing 0.05% Tween-20. Then, Streptavidin-HRP (Thermo fisher scientific) diluted 20000 times with PBS was added to each well, and the plate was allowed to stand for one hour or more at room temperature. After the plate was washed three times with 80 μl of PBS containing 0.05% Tween-20, a chromogenic substrate (ABTS peroxidase substrate) was added to each well. After the plate was incubated for one hour, color development in the solution of each well was assessed by measuring absorbance at 405 nm using SpectraMax from Molecular Device.
A general note: In an ELISA, binding on a coated surface is turned into a signal by an enzyme label.

The nature of data set [6]: phage ELISA for binding to ATP-PEG-biotin. How it is done:
(§1) Next, for the purpose of confirming to which antigen of 2′-adenosine-PEG-biotin, 5′-adenosine-PEG-biotin, and ATP-PEG-biotin these clones have binding ability, the purified phages diluted with TBS were subjected to ELISA by the following procedure. A StreptaWell 96 microtiter plate (Roche) was coated at room temperature for one hour with 100 μl of TBS containing a biotin-labeled antigen (2′-adenosine-PEG-biotin, 5′-adenosine-PEG-biotin, or ATP-PEG-biotin). After the antigens were removed by washing each well of the plate with TBST, the wells were blocked with 250 μl of 2% skim milk/TBS for one hour or more. 2% skim milk/TBS was removed, and then the prepared, purified phages were added to each well. The plate was allowed to stand at room temperature for one hour to allow binding of antibody-displaying phages to antigens in each well. After TBST wash, a HRP-conjugated anti-M13 antibody (Amersham Pharmacia Biotech) diluted with TBS was added to each well. The plate was incubated for one hour. Following TBST wash, the TMB single solution (ZYMED) was added to each well. The chromogenic reaction in the solution of each well was terminated by adding sulfuric acid. Then, the developed color was assessed by measuring absorbance at 450 nm.

Data set [7] is described as follows: competitive phage ELISA with ATP. Type of data set: binding. The conditions noted are these: ATP from equal amount up to 10000 times that of the antigen. How it is done: ATNLSA1-4_D12 and PF1 were each diluted with TBS and subjected to ELISA by the following procedure.
A StreptaWell 96 microtiter plate (Roche) was coated at room temperature for one hour with 100 μl of TBS containing biotin-labeled antigens (a mixture of 5′-adenosine-PEG-biotin and ATP-PEG-biotin). After the antigens were removed by washing each well of the plate with TBST, the wells were blocked with 250 μl of 2% skim milk/TBS for one hour or more. 2% skim milk/TBS was removed, and then the prepared, purified phages were added to each well. The plate was allowed to stand at room temperature for one hour to allow binding of the antibody-displaying phages to the antigens in each well. […] For the competition of the immobilized antigen with ATP, the plate was allowed to stand at room temperature for one hour. Then, after TBST wash, an HRP-conjugated anti-M13 antibody (Amersham Pharmacia Biotech) diluted with TBS was added to each well. The plate was incubated for one hour. Following TBST wash, the TMB single solution (ZYMED) was added to each well. The chromogenic reaction in the solution of each well was terminated by adding sulfuric acid. Then, the developed color was assessed by measuring absorbance at 450 nm.

Data set [8] in a line: SPR (Biacore T200) binding of D12 and ATNLSA1-4_D12 variants to ATP. The settings on record: Biacore T200, 15° C., 500 mM NaCl. As for the experimental part: (§2) Sensor chip CM5 or CM4 (GE Healthcare) was immobilized with an appropriate amount of protein A (Life technologies) by amine coupling. The antibody of interest was captured by the chip to allow interaction with ATP (Wako), adenosine (Wako), or ADP (adenosine diphosphate) (Wako) as an antigen. The running buffer used was 50 mM Tris-HCl (Takara, T903), 500 mM NaCl, 0.01% (w/v) Tween20. The antigen was allowed to interact for 30 seconds at a flow rate of 30 μl/min, and was dissociated for 30 seconds. The interaction with the antigen was assessed at 15° C. The antigen was diluted using the same running buffer.
(§3) The dissociation constant KD (M) was calculated based on the association rate constant ka (1/Ms) and dissociation rate constant kd (l/s), both of which are kinetic parameters calculated from the sensorgram obtained by the measurement. Alternatively, the dissociation constant KD (M) was calculated using steady state analysis. Each parameter was calculated using the Biacore T200 Evaluation Software (GE Healthcare).
Based on the assay result, the affinity of each variant for ATP was calculated as a KD value. […]
It was determined that amino acids substituted at the sites could be included in a library (flexible residues to be introduced into a library).

The nature of data set [9]: phage ELISA for binding to 5′-adenosine-PEG-biotin. As for the experimental part:
as §1

Data set [10] can be described thus: SPR (Biacore T200) binding of D12 to ADP. The conditions noted are these: Biacore T200, 15° C., 500 mM NaCl. How it is done: as §2, §3
Data set [11] in a line: SPR (Biacore T200) binding of D12 and variants to adenosine. The conditions noted are these: Biacore T200, 15° C., corrected with 20 μmo1/1 ADP, Formula 2. As for the experimental part:
as §2, §3
To calculate the KD for adenosine, the binding response was assessed at various concentrations of adenosine in the presence or absence of 20 μmo1/1 ADP. In addition, the binding response was separately assessed in the presence of 20 μmo1/1 ADP. […]

Method for Tm measurement by DSC: Measurement by DSC was carried out by a method known to those skilled in the art.
DSC measurement was carried out by a method known to those skilled in the art.

B1: SMB0002: rabbit B cell cloning antibody binding adenosine and ATP; heavy chain SEQ ID NO: 30, light chain SEQ ID NO: 31 (antibody, listed as Oryctolagus cuniculus)
heavy: CQSVEESGGRLVTPGTPLTLTCTVSGIDLSNYAMGWVRQAPGKGLEWIGIIGADSSTWYPSWVKGRFTISKTSTTVDLKMTSLTTEDTATYFCARGRFVGYTNAFDPWGPGTLVTVSS
light: AQVLTQTPSSVSAAVGGTVTISCQSSQSVWNNNYLSWYQQKPGQPPKLLIFDASTLASGVPSRFSGRGSGTQFTLTISGVQCEDAATYYCHGSYANSGWYDNAFGGGTEVVVK
As to B1, the Kd (commonly the free concentration of one partner at which half of the binding sites on the other are occupied at equilibrium, for simple one-to-one binding) was 59 µM in data set [1], 240 µM in [2], 0.015 µM in data set [3] and 10 µM in data set [4]. In addition, the “binding to 2′-Adenosine-PEG-Biotin on adding excess amounts of adenosine and ATP” value in data set [5] is listed as “inhibited”.

B2: ATNLSA1-4_D12: ATP/adenosine-binding antibody; heavy-chain variable region SEQ ID NO: 48, light-chain variable region SEQ ID NO: 49 (antibody, listed as Homo sapiens, V domains shown)
VH: QVQLQESGGDLVKPGGFLRLSCAASGFTFNTYTMNWVRQAPGKGLEWLSSISSRSNYINYADSVKGRFTISRDNAKNSLYLQMNSLRAEDTAVYYCARFGRKGDLNWVFDYWGQGTLVTVSS
VL: QSALTQPPSASGSPGQTVTISCTGTSSDVGGYNYVSWYQQHPGKAPKLMIYEVSKRPSGVPDRFSGSKSGNTASLTVSGLQAEDEADYFCSSYAGSNNVVFGGGTKLTVL
In the case of B2, the “binding to ATP-PEG-biotin” value in data set [6] is given as “ability to bind”. For the same molecule, the “binding to biotin-labeled antigen with ATP as competitor” value in data set [7] was “inhibited in an ATP concentration-dependent manner”. Further, the values for the Kd in data set [8], in data set [10] and in [11] were 8.5 µM, 0.25 µM and 1100 µM, respectively. Moreover, the “binding to 5′-Adenosine-PEG-biotin” value in [9] is “ability to bind”. Further, in the data set “Tm measurement by DSC”, the melting temperature (Tm) (usually the temperature at the midpoint of the melting transition) was found to be 74.37 °C.
